Assay results: US20210155712A1 (HUMMINGBIRD BIOSCIENCE HOLDINGS PTE, published 2021)
Blank lines part the entries; values can stand above or below the binder they belong to.

Key:
human HER2 [1] = target: T1, human HER2 (human, UniProt P04626 23-652); test: ELISA, plate coated with 0.1 ug/ml target polypeptide, antibody titrated, absorbance 450 nm
T1 construct: also called His-tagged HER2 protein
Description: (§1) ELISAs were used to determine the binding specificity of the antibodies. […] The antibodies were also analysed for their ability to bind to human EGFR and human HER2 (Sino Biological Inc., China).
(§2) ELISAs were carried out according to standard protocols. Briefly, 96-well plates (Nunc, Denmark) were coated with 0.1 μg/ml of target polypeptide in phosphate-buffered saline (PBS) for 16 h at 4° C. After blocking for 1 h with 1% BSA in Tris buffer saline (TBS) at room temperature, the anti-HER3 antibody was serially diluted with the highest concentration being 10 μg/ml, and added to the plate. Post 1 h incubation at room temperature, plates were washed three times with TBS containing 0.05% Tween 20 (TBS-T) and were then incubated with a HRP-conjugated […] antibody (Life Technologies, Inc., USA) for 1 h at room temperature. After washing, plates were developed with colorimetric detection substrate 3,3′,5,5′-tetramethylbenzidine (Turbo-TMB; Pierce, USA) for 10 min. The reaction was stopped with 2M H₂SO₄, and OD was measured at 450 nm.

human EGFR [2] = target: T2, human EGFR (human, UniProt P00533 25-645); test: as above
T2 construct: also called human HER1 (EGFR); human EGFR-His
Description: as §1, §2

human EGFR [3] = target: T2, human EGFR; test: ELISA, coated human EGFR (HER1), antibody titrated, absorbance 450 nm
human HER2 [4] = target: T1, human HER2; test: ELISA, coated human HER2, antibody titrated, absorbance 450 nm
[5] = target: T3, human HER3 expressed on cells (human, UniProt P21860 20-1342); test: flow cytometry on HEK293 cells overexpressing human HER3, 20 ug/ml antibody, FITC anti-Fc secondary
T3 construct: HEK293 cells transfected with a vector encoding human HER3; Also used here for HER3 on U2OS PathHunter cells and cancer cell lines; also called HEK293 HER3 O/E cells; HER3-expressing cells
Description: The cells were washed thrice with FACS buffer (PBS with 5 mM EDTA and 0.5% BSA) and resuspended in FITC-conjugated anti-FC antibody (Invitrogen, USA) for 40 min at 2-8° C. Cells were washed again and resuspended in 200 μL of FACS flow buffer (PBS with 5 mM EDTA) for flow cytometric analysis using MACSQuant 10 (Miltenyi Biotec, Germany). After acquisition, all raw data were analyzed using Flowlogic software. Cells were gated using forward and side scatter profile percentage of positive cells was determined for native and overexpressing cell populations.

B1: anti-HER3 clone 10D1 IgG1 (antibody)
heavy: not shown
light: DIVMTQSQKFMSTSVGDRVSVTCKASQIVGSNVAWYQQKPGQSPKPLIYSASYRYSGVPDRFTASGSGTDFTLTITNVQSEDLAEYFCQQYSSHPLTFGAGTKLELKRTVAAPSVFIFPPSDEQLKSGTASVVCLLNNFYPREAKVQWKVDNALQSGNSQESVTEQDSKDSTYSLSSTLTLSKADYEKHKVYACEVTHQGLSSPVTKSFNRGEC
notes: also called 10D1P; 10D1 (parental)
binding result (human HER2 [1]): no binding (tested: about 2e-7 M (log -6.7)) | binding result (human EGFR [2]): no binding (tested: about 2e-7 M (log -6.7))

B2: 10D1F.FcA (antibody, human IgG1, kappa)
heavy: not shown
light: DIQMTQSPSSVSASVGDRVTITCKASQIVGSNVAWYQQKPGKAPEPLIYSASYLYSGVPSRFSGSGSGTDFTLTISSLQPEDFATYYCQQYSSHPLTFGQGTKLEIKRTVAAPSVFIFPPSDEQLKSGTASVVCLLNNFYPREAKVQWKVDNALQSGNSQESVTEQDSKDSTYSLSSTLTLSKADYEKHKVYACEVTHQGLSSPVTKSFNRGEC
notes: the full chains 206/207 are used here; also called 10D1F.A; anti-HER3 clone 10D1_c89 IgG1
binding result (human EGFR [3]): no binding (tested: last point at about log(M) -8.1) | binding result (human HER2 [4]): no binding (tested: last point at about log(M) -8.1)

% Parent (HER3 Positive) [5]: 41.9%
B3: anti-HER3 clone 10D1_c90 IgG1 (antibody, V domains shown)
VH: QVQLQESGPGLVKPSQTLFLTCTVSGYSITSGYSWHWIRQHPGKGLEWIGSIRYSGGTDYNPSLKSLVTISVDTSKNQFSLKLSSVTAADTAVYYCARMTTAPWYPFDYWGQGTTVTVSS
VL: DIQMTQSPSSVSASVGDRVTFTCKASQIVGSNVAWYQQKPGKAPEPLIYSASYLYSSVPSRFSGSGSGTEFTMTISSLEPEDFATYYCQQYTTHPLTFGPGTKVEIKR
notes: IgG1/kappa
